Laboratory results published in patent publication US20200048328A1 (Bristol-Myers Squibb, published 2020).
Each block holds one binder with its values, some of them ahead of it.

Columns and labels:
domain I of HSA = biological target: T1, domain I of HSA (human, UniProt P02768 25-221, limits assumed); assay: SPR on HSA domains
T1 construct: domain: I; also called HSA domain I

domain III of HSA = biological target: T2, domain III of HSA (human, UniProt P02768 405-609, limits assumed); assay: SPR on HSA domains
T2 construct: domain: III; also called HuSA domainIII

human serum albumin [1] = biological target: T3, human serum albumin (human, UniProt P02768 25-609); assay: hFcRn:HSA competition AlphaScreen, pH 5.5
T3 construct: immobilized on chips or coated on plates elsewhere; also called HSA; HuSA

human serum albumin [2] = biological target: T3, human serum albumin; assay: direct binding ELISA on coated HSA, mono-Adnectin (column HSA EC50 (nM))
mouse serum albumin [3] = biological target: T4, mouse serum albumin (mouse, UniProt P07724 25-608); assay: SPR, albumin immobilized;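 further: biacore CM5 surface plasmon resonance with serum albumin coupled to the chip, 3 min association then 6-10 min dissociation, rates from a 1:1 model fit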
T4 construct: also called MSA; MuSA

cynomolgus serum albumin = biological target: T5, cynomolgus serum albumin (cynomolgus, UniProt A2V9Z4 25-608); assay: SPR, albumin immobilized;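 further: biacore CM5 surface plasmon resonance with serum albumin coupled to the chip, 3 min association then 6-10 min dissociation, rates from a 1:1 model fit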
T5 construct: also called cynoSA; CySA

human serum albumin [4] = biological target: T3, human serum albumin; assay: SPR, albumin immobilized;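 further: biacore CM5 surface plasmon resonance with serum albumin coupled to the chip, 3 min association then 6-10 min dissociation, rates from a 1:1 model fit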
rhesus serum albumin [5] = biological target: T6, rhesus serum albumin (rhesus, UniProt Q28522 17-600); assay: SPR, albumin immobilized;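 further: biacore CM5 surface plasmon resonance with serum albumin coupled to the chip, 3 min association then 6-10 min dissociation, rates from a 1:1 model fit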
T6 construct: also called RhSA; Rh-SA

rat serum albumin [6] = biological target: T7, rat serum albumin (rat, UniProt P02770 25-608); assay: SPR, albumin immobilized
T7 construct: also called Rat SA; RSA

human PCSK9 [7] = biological target: T8, human PCSK9 (human, UniProt Q8NBP7 31-692); assay: PCSK9:EGFA FRET 2, competition
T8 construct: also called hPCSK9; huPCSK9

human PCSK9 [8] = biological target: T8, human PCSK9; assay: PCSK9:EGFA FRET 1, competition
cynomolgus PCSK9 = biological target: T9, cynomolgus PCSK9 (cynomolgus, UniProt A0A7N9D9N8 150-747); assay: Octet Red, 37° C., core
T9 construct: also called cyno PCSK9

human PCSK9 [9] = biological target: T8, human PCSK9; assay: Octet Red, 37° C., core
human PCSK9 [10] = biological target: T8, human PCSK9; assay: PCSK9:LDLR FRET, competition
mouse serum albumin [11] = biological target: T4, mouse serum albumin; assay: SPR, albumin immobilized, Adnectin 250 nM
human serum albumin [12] = biological target: T3, human serum albumin; assay: SPR, albumin immobilized, Adnectin 250 nM
rhesus serum albumin [13] = biological target: T6, rhesus serum albumin; assay: SPR, albumin immobilized, Adnectin 250 nM
rat serum albumin [14] = biological target: T7, rat serum albumin; assay: SPR, albumin immobilized, Adnectin 250 nM

- binding result (domain I of HSA): no binding
- binding result (domain III of HSA): no binding
- IC50 (human serum albumin [1]): 28.7 nM
- EC50 (human serum albumin [2]): 9 nM
- Kd (mouse serum albumin [3]): 13.6 nM
- koff (mouse serum albumin [3]): 0.0092 s⁻¹
- kon (mouse serum albumin [3]): 678000 M⁻¹ s⁻¹
- Kd (cynomolgus serum albumin): 1.6 nM
- koff (cynomolgus serum albumin): 0.000335 s⁻¹
- kon (cynomolgus serum albumin): 208000 M⁻¹ s⁻¹
- Kd (human serum albumin [4]): 1 nM
- koff (human serum albumin [4]): 0.000162 s⁻¹
- kon (human serum albumin [4]): 167000 M⁻¹ s⁻¹
- Kd (rhesus serum albumin [5]): 1.8 nM
- koff (rhesus serum albumin [5]): 0.000362 s⁻¹
- kon (rhesus serum albumin [5]): 207000 M⁻¹ s⁻¹
- Kd (rat serum albumin [6]): 200 nM
- koff (rat serum albumin [6]): 0.0299 s⁻¹
- kon (rat serum albumin [6]): 150000 M⁻¹ s⁻¹
B1: PKE2 Adnectin 2630_D02 (designed binder)
chain: MGVSDVPRDLEVVAATPTSLLISWDAPAVTVRYYRITYGREVQKYSDWGPLYIYNEFTVPGSKSTATISGLKPGVDYTITVYAVTGSGESPASSKPISINYRTEIDKPSQHHHHHH
notes: 10Fn3 domain with modified CD loop; the entry includes the His6 tail

- IC50 (human PCSK9 [7]): 10.6 nM
- IC50 (human PCSK9 [8]): 19.7 nM
- Kd (cynomolgus PCSK9): 39 nM
- Kd (human PCSK9 [9]): 0.14 nM
- IC50 (human PCSK9 [10]): 2.3 nM
B2: PCSK9 Adnectin 2382_D09 (designed binder)
chain: MGVSDVPRDLEVVAATPTSLLISWDAPAEGYGYYRITYGETGGNSPVQEFTVPVSKGTATISGLKPGVDYTITVYAVEFDFPGAGYYHRPISINYRT

- koff (mouse serum albumin [11]): 0.000461 s⁻¹
- koff (human serum albumin [12]): 0.000228 s⁻¹
- koff (rhesus serum albumin [13]): 0.000284 s⁻¹
- koff (rat serum albumin [14]): 0.00076 s⁻¹
B3: 5963_E02.PS5-2 (designed binder)
chain: MGVSDVPRDLEVVAATPTSLLISWDAPAVTVRYYRITYGREVQKYSDLGPLYIYQEFTVPGSKSCATISGLKPGVDYTITVYAVTGSGESPASSKPISINYRTPHHHHHH
